Experimental data: patent publication US20130251702A1, “METHOD FOR SCREENING COMPOUNDS FOR TREATING SEPSIS TARGETING NOD2 SIGNALLING PATHWAY AND COMPOSITION FOR TREATING SEPSIS COMPRISING NOD2 SIGNALLING PATHWAY INHIBITORS” (SNU R&DB FOUNDATION, priority 2012, published 2013)

Key:
[1] = tested on: NOD2-mediated IL-1β and IL-10 production; test: Peritoneal immune cells cultured with SB203580 and/or MDP, IL-1β and IL-10 measured in culture; format: cell-based, mice
Protocol: (§1) Concentrations of IL-1β, IL-6, IL-10, IFN-γ, TNF-α and C5a in serum and peritoneal fluid were measured in CLP-induced sepsis mice. All cytokines were measured using a BD Bioscience ELISA kit according to the manufacturer's instructions. Colorimetric reactions were stopped by adding 3 N HCl, and the optical absorbance at 450 and 570 nm was determined using a spectrophotometer.
To investigate the mechanism by which NOD2 enhances C5 generation during polymicrobial infection, serum and peritoneal levels of various cytokines in WT and Nod2^−/− mice were estimated after CLP. […] To confirm whether NOD2-mediated signals induce IL-1β and IL-10 production by immune cells, peritoneal cells from WT and Nod2^−/− mice were cultured with MDP, a NOD2 agonist. […] Among immune cells, monocytes, granulocytes, and dendritic cells, but not T or B cells, express NOD 2 (Gutierrez, O. et al. Induction of Nod2 in myelomonocytic and intestinal epithelial cells via nuclear factor-kappa B activation. J Biol Chem 277, 41701-41705 (2002)).
Upon activation, NOD2 oligomerizes and recruits the nuclear factor (NF)-κB-activating kinase receptor-interacting protein 2 (RIP2) via a homotypic CARD-CARD (caspase recruitment domain) interaction, triggering IκB phosphorylation and NF-κB activation.

CD55 = CD55 expression on Ly6-G+ peritoneal cells (flow cytometry) after CLP; format: in vivo, mice
Protocol: (§2) To deplete Gr-1^+cells in vivo, WT B6 or NOD2−/− mice were i.p. injected with anti-Gr-1 mAb (160 μg/injection) (BD Bioscience, Sparks, Md., USA) 2 and 3 days prior to CLP. Recombinant mouse (mr) IL-1β (40 μg/mouse) or IL-10 (30 μg/mouse) (ProSpec-Tany TechnoGene, Rehovot, Israel) was i.p. injected into WT or Nod2^−/− mice 4 or 12 h after CLP, respectively. mrC5a (5 μg/injection) or anti-05a mAb (100 μg/injection) (R&D Systems Inc., Minneapolis, Minn., USA) was i.p. injected into WT or Nod2^−/− mice 4 and 12 h after CLP.
PLF cells were incubated with antibodies on ice for 30 min in 100 μl of staining buffer (0.5% BSA). FITC-conjugated anti-Ly-6G, phycoerythrin (PE)-conjugated anti-CD4 mAb, PE-conjugated anti-CD8, PE-conjugated anti-MHC class II, FITC-conjugated anti-CD80, FITC-conjugated anti-CD86, FITC-conjugated anti-annexin V mAbs, and 7AAD (7-amino-actinomycin D) were purchased from BD Biosciences. PE Cy5- or Alexa 647 (eBioscience, San Diego, Calif., USA)-conjugated anti-F4/80 mAb was used. Stained cells were then run on an LSR II and FACs caliber (BD Bioscience) and analyzed using Flowjo software (Treestar, Ashland, Oreg., USA).

RIP2 = target: T1, RIP2 (Mus musculus, UniProt P58801); test: Blot of RIP2 phosphorylation in peritoneal immune cells during CLP-induced sepsis; format: in vivo; conditions: WT mice, SB203580 50 μg/mouse i.p.
T1 construct: reduced phosphorylation of RIP2 and P38 in peritoneal immune cells; endogenous in cells
T1 sequence (P58801 whole entry): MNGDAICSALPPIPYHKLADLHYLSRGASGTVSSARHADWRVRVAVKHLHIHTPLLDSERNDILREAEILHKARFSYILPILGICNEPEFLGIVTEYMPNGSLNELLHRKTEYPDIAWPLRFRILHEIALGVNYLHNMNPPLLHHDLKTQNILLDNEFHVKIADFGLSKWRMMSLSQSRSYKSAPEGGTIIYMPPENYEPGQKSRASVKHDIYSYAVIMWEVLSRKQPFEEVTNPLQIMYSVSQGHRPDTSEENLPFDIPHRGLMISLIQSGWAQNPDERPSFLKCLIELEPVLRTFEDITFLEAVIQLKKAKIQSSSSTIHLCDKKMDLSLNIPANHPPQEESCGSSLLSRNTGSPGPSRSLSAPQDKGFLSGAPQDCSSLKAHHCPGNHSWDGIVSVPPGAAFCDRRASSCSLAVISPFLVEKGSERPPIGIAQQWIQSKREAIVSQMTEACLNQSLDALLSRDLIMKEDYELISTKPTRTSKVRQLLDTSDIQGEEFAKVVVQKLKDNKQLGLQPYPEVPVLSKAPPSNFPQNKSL

CLP-induced sepsis mice = test: Serum and peritoneal cytokine and complement levels (ELISA) in CLP-induced sepsis mice; format: in vivo; conditions: for serum and peritoneal C5a generation: WT or Nod2−/− mice, recombinant cytokine 4 h or 12 h after CLP
Protocol: as §2, §1

CLP-induced sepsis = test: Survival in CLP-induced sepsis; format: in vivo, mice; conditions: for survival during CLP-induced sepsis: WT mice injected with recombinant protein after CLP
Protocol: as §2
Survival data were plotted as Kaplan-Meier survival curves and analyzed using the log-rank test. Statistical significance was analyzed using Prism 5.0 (GraphPad Software Inc, San Diego, Calif., USA). One-way and two-way analyses of variance (ANOVA) and t-tests was performed, and a post hoc test was used if P<0.05. Data are expressed as the mean±standard error of the mean.

[2] = cited from earlier work
peritoneal immune cells = test: Responsiveness of peritoneal immune cells from CLP mice against LPS (cytokine production LPS vs PBS); format: in vivo; conditions: for LPS-mediated cytokine production by peritoneal immune cells: cells from Nod2−/− mice with CLP
Protocol: as §2
(§3) During bacterial septic shock, C5a triggers coagulopathy and neutrophil dysfunction, thereby defective bacterial clearance and cytokine production (Ward, P. A. The dark side of C5a in sepsis. Nat Rev Immunol 4, 133-142 (2004)). Therefore, to estimate C5a effects on immune responses in WT B6 and Nod2^−/− mice during infection, we examined the responsiveness of immune cells against lipopolysaccharide (LPS) and macrophage phagocytic activity, bacteria colony-forming units (CFUs), and levels of serum D-dimer after CLP. To estimate the responsiveness of peritoneal immune cells against LPS, peritoneal cells obtained from B6 or Nod2^−/− mice 24 h after CLP were stimulated with LPS or PBS (FIG. 1C). The responsiveness of peritoneal immune cells against LPS was determined by estimating ratios of individual cytokines produced against LPS versus PBS. Peritoneal immune cells obtained from Nod2^−/− mice 24 h after CLP produced higher IL-1β, IL-6, and TNF-αlevels against LPS than did WT peritoneal cells. The levels of serum D-dimer in Nod2^−/− mice were lower than those in WT mice (FIG. 1D). However, peritoneal cells obtained from Nod2^−/− mice engulfed more FITC-conjugated Escherichia coli than did WT peritoneal cells (FIG. 1E). Consistent with these findings, bacteria CFU levels in the blood and liver homogenates were higher in WT B6 mice than in Nod2^−/− mice (FIG. 1F). Recombinant C5a administration to Nod2^−/− mice with CLP reversed cytokine production by peritoneal immune cells and serum D-dimer levels, but not phagocytosis activity and bacterial CFUs.

bacteria = test: Bacterial CFUs in blood and liver homogenates after CLP; format: in vivo; conditions: Nod2−/− mice with CLP
Protocol: Bacterial CFUs were determined by plating serial dilutions of blood and liver homogenates onto blood agar plates (Hanil Komed, Seoul, Korea), which were incubated in 5% CO2 at 37° C. overnight. The number of colonies was counted 18 h later.

peritoneal cells = test: Bacterial phagocytosis by peritoneal immune cells (FITC-labeled E. coli); format: in vivo; conditions: Nod2−/− mice with CLP
Protocol: Peritoneal fluid cells of WT B6 or Nod2^−/− mice were cultured with FITC-labeled E. coli (Invitrogen, Carlsbad, Calif., USA) for 15 min. Cells attached on the plates were washed with warm PBS three times and then treated with 0.2% trypan blue for 1 min at room temperature. Cells were fixed with 4% formalin for 15 min and cultured with FITC-labeled E. coli. to estimate nonspecific binding of E. coli on the cell surface. These cells, which were cultured with FITC-labeled E. coli, were then run on the FACs caliber machine and analyzed with Flowjo software.

[3] = Serum D-dimer levels after CLP; format: in vivo; conditions: Nod2−/− mice with CLP
Source text: as §3, with “Recombinant C5a administration to Nod2^−/− mice with CLP reversed cytokine production by peritoneal immune cells and serum D-dimer levels, but not phagocytosis activity and bacterial CFUs.” left out

[4] = WT mice, CLP, SB203580 50 μg/mouse i.p.
[5] = WT mice peritoneal immune cells, SB203580 20 nM, MDP 20 μg/ml, 24 h
[6] = 73 patients treated, Critical Care Medicine 2009
[7] = Nod2−/− mice, polymicrobial infection
[8] = Nod2−/− mice injected with recombinant protein after CLP

With CC(=O)N[C@@H]1[C@@H](O[C@H](C)C(=O)N[C@@H](C)C(=O)N[C@H](CCC(=O)O)C(N)=O)[C@H](O)[C@@H](CO)O[C@H]1O [MDP] the “IL-1β production upon MDP treatment” value ([1]; NOD2-deficient cells) was “minimally produced”, the “IL-10 production upon MDP treatment” value ([1]; NOD2-deficient cells) was “minimally produced” and the “IL-1β production upon MDP treatment” value ([1]; WT peritoneal immune cells) was “produced”. The “IL-10 production upon MDP treatment” value ([1]; WT peritoneal immune cells) was “produced”.

For C[S+]([O-])c1ccc(-c2nc(-c3ccncc3)c(-c3ccc(F)cc3)[nH]2)cc1 (centres unmarked) [SB203580, reference compound], the “CD55 expression levels of Ly6-G+ granulocytes” value (CD55; [4]) was “reduced”, the “phosphorylation of RIP2 in peritoneal immune cells” value (RIP2) was “reduced” and the “MDP-mediated IL-1β production by peritoneal cells” value [1, 5] was “decreased”. For the same molecule, the “MDP-mediated IL-10 production by peritoneal cells” value [1, 5] was “decreased”, the “levels of serum and peritoneal C5a during sepsis” value (CLP-induced sepsis mice; [4]) was “reduced” and the “levels of serum and peritoneal IL-1β during sepsis” value (CLP-induced sepsis mice; [4]) was “reduced”. For the same molecule, the “levels of serum and peritoneal IL-10 during sepsis” value (CLP-induced sepsis mice; [4]) was “reduced”, the CLP-induced sepsis (CLP-induced sepsis; WT mice injected with SB203580, FIG. 6 legend) was “attenuates” and the “survival rates during CLP-induced sepsis” value (CLP-induced sepsis; WT mice, SB203580 50 μg/mouse i.p. vs PBS) was “increased”.

In the case of Drotrecogin alfa [Xigris], the fatality [2, 6] is given as “increased”, the hemorrhage [2, 6] is given as “severe hemorrhage had occurred” and the “severe side effect in clinical trial” value ([2]; pediatric patients with severe blood infection) is given as “cerebral hemorrhage”.

B1: recombinant IL-10: Recombinant mouse IL-10, 30 μg/mouse i.p. (protein, UniProt P18893 19-178, looked up)
Interleukin-10: SRGQYSREDNNCTHFPVGQSHMLLELRTAFSQVKTFFQTKDQLDNILLTDSLMQDFKGYLGCQALSEMIQFYLVEVMPQAEKHGPEIKEHLNSLGEKLKTLRMRLRRCHRFLPCENKSKAVEQVKSDFNKLQDQGVYKAMNEFDIFINCIEAYMMIKMKS
In the case of B1, the “CD55 expression on F4/80−Ly6-G+ peritoneal cells” value (CD55; [7]) is reported as “decreased”, the “LPS-mediated cytokine production by peritoneal immune cells” value (shortened to “LPS-mediated cytokine production”) (peritoneal immune cells) is reported as “suppressed” and the “serum and peritoneal C5a generation” value (CLP-induced sepsis mice) is reported as “enhanced”. The “survival rates during CLP-induced sepsis” value (CLP-induced sepsis; [8]) was “reduced”, the “survival during CLP-induced sepsis” value (CLP-induced sepsis) was “did not affect” and the “bacterial CFUs in the blood or liver homogenates” value (“bacterial CFUs” below) (bacteria) was “not”.

B2: recombinant IL-1β: Recombinant mouse (mr) IL-1β, 40 μg/mouse i.p. (protein, UniProt P10749 118-269, looked up)
Interleukin-1 beta: VPIRQLHYRLRDEQQKSLVLSDPYELKALHLNGQNINQQVIFSMSFVQGEPSNDKIPVALGLKGKNLYLSCVMKDGTPTLQLESVDPKQYPKKKMEKRFVFNKIEVKSKVEFESAEFPNWYISTSQAEHKPVFLGNNSGQDIIDFTMESVSS
For B2, the “CD55 expression on F4/80−Ly6-G+ peritoneal cells” value (CD55; Il-10−/− mice) was “did not decrease”, the “CD55 expression on F4/80−Ly6-G+ peritoneal cells” value (CD55; [7]) was “decreased” and the “LPS-induced cytokine production by peritoneal immune cells” value (peritoneal immune cells; cells from Il-10−/− mice with CLP) was “did not alter”. The “LPS-mediated cytokine production” value (peritoneal immune cells) was “suppressed”, the “phagocytosis of bacteria by peritoneal cells” value (peritoneal cells) was “reduced” and the “C5a levels during polymicrobial infection” value (CLP-induced sepsis mice; Il-10−/− mice with CLP) was “not altered”. For the same molecule, the “serum and peritoneal IL-10 levels” value (CLP-induced sepsis mice; Nod2−/− mice, polymicrobial infection (CLP)) was “enhanced”, the “serum and peritoneal C5a generation” value (CLP-induced sepsis mice) was “enhanced” and the “survival rates during CLP-induced sepsis” value (CLP-induced sepsis; [8]) was “reduced”. For the same molecule, the “survival during CLP-induced sepsis” value (CLP-induced sepsis) was “did not affect” and the “bacterial CFUs” value (bacteria) was “reduced”.

B3: recombinant C5a: recombinant mouse C5a, i.p. injected 5 μg/injection (protein, UniProt P06684 679-755, looked up)
C5a anaphylatoxin: NLHLLRQKIEEQAAKYKHSVPKKCCYDGARVNFYETCEERVARVTIGPLCIRAFNECCTIANKIRKESPHKPVQLGR
modifications: C5a anaphylatoxin
notes: recombinant mouse C5a, i.p. injected 5 μg/injection
With B3 the “serum D-dimer levels” value [3] was “reversed”, the “LPS-mediated cytokine production” value (peritoneal immune cells) was “reversed” and the “survival rates during CLP-induced sepsis” value (CLP-induced sepsis; [8]) was “decreased”. For the same molecule, the “survival during CLP-induced sepsis” value (CLP-induced sepsis) was “did not cause survival changes” and the “bacterial CFUs” value (bacteria) was “not”.
